One molecule from publication PMC6287933 (Methods in enzymology, 2018) can be followed below.

The test deals with T1, Methylobacterium extorquens (Mex) PqqE (Methylobacterium extorquens, UniProt P71517 1-384).
T1 sequence (looked up): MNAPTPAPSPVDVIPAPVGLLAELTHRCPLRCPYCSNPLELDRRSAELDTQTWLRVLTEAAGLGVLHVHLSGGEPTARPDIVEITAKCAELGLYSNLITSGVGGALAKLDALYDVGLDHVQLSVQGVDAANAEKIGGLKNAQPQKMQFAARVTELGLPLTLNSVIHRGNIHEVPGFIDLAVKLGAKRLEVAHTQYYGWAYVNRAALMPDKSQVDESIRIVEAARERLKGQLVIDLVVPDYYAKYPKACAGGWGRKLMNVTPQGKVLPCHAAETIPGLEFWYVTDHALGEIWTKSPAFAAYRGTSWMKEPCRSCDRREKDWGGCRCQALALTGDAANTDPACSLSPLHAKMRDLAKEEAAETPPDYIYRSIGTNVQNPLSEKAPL
The test is described as follows: native MS.

B1: Methylobacterium extorquens (Mex) PqqD (domain or fragment, Methylobacterium extorquens AM1, UniProt Q49150 280-372, looked up)
chain: EPTAFSGSDVPRLPRGVRLRFDEVRNKHVLLAPERTFDLDDNAVAVLKLVDGRNTVSQIAQILGQTYDADPAIIEADILPMLAGLAQKRVLER
For B1, the stoichiometry N (as a rule, a count of units in the complex or per binding partner) was 1.
